This note sets out measurements from patent publication US20150284477.

Series [1] has as its target T1, GGG-COOH.
T1 chain: GGG

Series [2] addresses T2, LPETG (SEQ ID NO: 4) substrate (not fully specified).
T2 chain: LPETG

Series [3] deals with LPESG motif-bearing substrate.
The target of series [4] is T3, LAETG motif-bearing substrate (not fully specified).
T3 chain: LAETG

Substitutions are numbered along the chain they refer to. Names may count otherwise.

B1: P94S/D160N/K196T (protein)
chain: MQAKPQIPKDKSKVAGYIEIPDADIKEPVYPGPATSEQLNRGVSFAEENESLDDQNISIAGHTFIDRPNYQFTNLKAAKKGSMVYFKVGNETRKYKMTSIRNVKPTDVEVLDEQKGKDKQLTLITCDDYNEKTGVWETRKIFVATEVKLEHHHHHH
In the case of B1, the Km GGG-COOH in series [1] stood at 1830 ± 330 µM. The Km LPETG in series [2] amounted to 560 µM.

B2: srtA P94S (protein)
chain: B1 chain with N102D, T138K
B2: the Km GGG-COOH in series [1] was 650 µM. For the same protein, the Km LPETG in series [2] turned out to be 2500 µM.

B3: D160N/K190E/K196T (clone 4.2) (protein)
chain: B1 chain with S36P, K132E
With B3, the Km GGG-COOH in series [1] was determined as 1200 ± 200 µM. For the same protein, the Km LPETG in series [2] is 1600 µM.

B4: srtA K196T (protein)
chain: B1 chain with S36P, N102D
For the protein B4, in series [1], the Km GGG-COOH is 200 µM. The Km LPETG in series [2] was found to be 3300 µM.

B5: P94S/D160N/D165A/K196T (protein)
chain: B1 chain with D107A
Consider B5, for which the Km GGG-COOH in series [1] is 4800 ± 700 µM. Further, in series [2], the Km LPETG came to 170 µM and the “LPETG recognition (Km LPETG) against wild type SrtA” value is on record as 45-fold improved LPETG (SEQ ID NO: 4) recognition.

B6: wild type S. aureus sortase A (truncated, His tagged) (protein)
chain: B1 chain with S36P, N102D, T138K
On to B6, for which, in series [1], the Km GGG-COOH stood at 140 µM and the Km, GGG (uM); column wt/wt worked out at 291 µM. Moreover, in series [2], the Km LPETG worked out at 7600 µM and the Km, LxExG (uM); column wt/wt amounted to 5180 µM.

B7: P94S/D165A (clone 4.3) (protein)
chain: B1 chain with N102D, D107A, T138K
Regarding B7, the Km GGG-COOH in series [1] turned out to be 1700 ± 400 µM. In series [2], the Km LPETG was determined as 1100 µM.

B8: P94R/D160N/D165A/K190E/K196T pentamutant sortase A (protein)
chain: B1 chain with S36R, D107A, K132E
In the case of B8, the Km, LxExG (uM); column 5mut/4S in series [3] is 672 µM. Also, in series [4], the Km, LxExG (uM); column 5mut/2A worked out at 6160 µM. For the same protein, in series [1], the “Km GGG against the tetramutant” value was “the Km GGG of this mutant improved by 1.8-fold”; the “Km GGG against wild type srtA” value is on record as “a 20-fold higher Km GGG”; the Km GGG-COOH amounted to 2900 ± 200 µM; the Km, GGG (uM); column 5mut/wt came out at 2990 µM. Besides, in series [2], the “KM LPETG against the tetramutant” value is “the kcat and KM LPETG were not altered by more than a factor of 1.3-fold”; the Km LPETG was determined as 230 µM; the Km, LxExG (uM); column 5mut/wt amounted to 208 µM.

B9: srtA D165A (protein)
chain: B1 chain with S36P, N102D, D107A, T138K
Regarding B9, the Km GGG-COOH in series [1] was 1000 ± 480 µM. For the same protein, in series [2], the Km LPETG worked out at 3600 µM.

B10: srtA D160N (protein)
chain: B1 chain with S36P, T138K
For the protein B10, the Km GGG-COOH in series [1] amounted to 330 µM. In addition, the Km LPETG in series [2] stood at 3700 µM.

B11: P94S/D160N/D165A (protein)
chain: B1 chain with D107A, T138K
With B11, the Km GGG-COOH in series [1] came to 1750 ± 250 µM. In series [2], the Km LPETG came out at 510 µM.

B12: sortase 2A.3.5 (protein)
chain: QAKPQIPKDKSKVAGYIEIPDADIKEPVYPGPATREQLNRGVSFAEENESLDDQNISIAGHTFIDRPNYQFTNLKAAKKGSMVYFKVGNETRKYKMTSIRNVRPTAVEILDEQKGKDKQLTLFTCDDYNEETGVWETRKIFVATEVK
For the protein B12, in series [4], the Km, LxExG (uM); column 2A.3.5/2A was determined as 7160 µM. The Km, LxExG (uM); column 2A.3.5/wt in series [2] is 4110 µM.

B13: sortase 2A.4 (protein)
chain: B12 chain with A45H, F123V
For the protein B13, in series [4], the Km, LxExG (uM); column 2A.4/2A stood at 3250 µM. In addition, in series [2], the Km, LxExG (uM); column 2A.4/wt is 11700 µM.

B14: sortase 4S.6A (protein)
chain: B12 chain with N39D, A45V, A59T, F63A, K75G, R103K, I109V, F123V, E130V
In the case of B14, the Km, LxExG (uM); column 4S.6A/4S in series [3] amounted to 102 µM. Besides, the Km, GGG (uM); column 4S.6A/4S in series [1] is 4950 µM. Moreover, in series [2], the Km, LxExG (uM); column 4S.6A/wt was found to be 1290 µM.

B15: sortase 4S.3.5 (protein)
chain: B12 chain with A45T, A59T, R103K, I109V, F123V
Take B15: the Km, LxExG (uM); column 4S.3.5/4S in series [3] was found to be 7310 µM.

B16: sortase 4S.6B (protein)
chain: B12 chain with N39D, A45V, A59S, F63A, K75P, R103K, I109V, F123V, E130P
Consider B16, for which, in series [3], the Km, LxExG (uM); column 4S.6B/4S is 312 µM. Further, in series [1], the Km, GGG (uM); column 4S.6B/4S amounted to 15700 µM. In addition, in series [2], the Km, LxExG (uM); column 4S.6B/wt is 238 µM.

B17: sortase 4S.6C (protein)
chain: B12 chain with N39D, A45V, A59T, F63A, K75R, R103K, I109V, F123V, E130F
On to B17, for which, in series [3], the Km, LxExG (uM); column 4S.6C/4S came out at 156 µM. The Km, GGG (uM); column 4S.6C/4S in series [1] amounted to 36000 µM. Further, the Km, LxExG (uM); column 4S.6C/wt in series [2] is 16.1 µM.

B18: sortase 2A.6B (protein)
chain: B12 chain with R40K, A45H, K79V, N101K, I109V, F123V
For the protein B18, in series [4], the Km, LxExG (uM); column 2A.6B/2A was 310 µM. Besides, the Km, GGG (uM); column 2A.6B/2A in series [1] amounted to 642 µM.

B19: sortase 4S.4 (protein)
chain: B12 chain with A45V, A59T, F63S, R103K, I109V, F123V
For B19, in series [3], the Km, LxExG (uM); column 4S.4/4S turned out to be 1410 µM. The Km, LxExG (uM); column 4S.4/wt in series [2] stood at 339 µM.

B20: sortase 4S.5 (protein)
chain: B12 chain with N39D, A45V, A59T, F63A, K75R, R103K, I109V, F123V
For the protein B20, in series [3], the Km, LxExG (uM); column 4S.5/4S is 76 µM. In series [1], the Km, GGG (uM); column 4S.5/4S amounted to 26700 µM. Moreover, in series [2], the Km, LxExG (uM); column 4S.5/wt turned out to be 12.2 µM.

B21: sortase 2A.6C (protein)
chain: B12 chain with A45H, K79P, K93I, N101K, I109V, F123V
For the protein B21, the Km, LxExG (uM); column 2A.6C/2A in series [4] was 343 µM. In addition, the Km, GGG (uM); column 2A.6C/2A in series [1] came out at 642 µM. Besides, the Km, LxExG (uM); column 2A.6C/wt in series [2] turned out to be 1980 µM.

B22: sortase 2A.5 (protein)
chain: B12 chain with R40H, A45H, K79I, I109V, F123V
As for B22, the Km, LxExG (uM); column 2A.5/2A in series [4] was 433 µM. In series [1], the Km, GGG (uM); column 2A.5/2A is 2810 µM. Besides, in series [2], the Km, LxExG (uM); column 2A.5/wt was determined as 4900 µM.

B23: sortase 2A.6A (protein)
chain: B12 chain with A45H, K79V, I109V, F123V
In the case of B23, the Km, LxExG (uM); column 2A.6A/2A in series [4] is 608 µM. The Km, GGG (uM); column 2A.6A/2A in series [1] worked out at 1040 µM. Further, in series [2], the Km, LxExG (uM); column 2A.6A/wt stood at 3290 µM.
